We go through 25 molecules from patent US20030228371A1 (STASYS TECHNOLOGIES, published 2003).

Read-outs that look alike come from different tables or passages of the source. Square brackets hold non-standard residues; d marks the D form. Ends that are not written are not given here. * marks the point of attachment. 2Thi = N[C@@H](Cc1cccs1)C(=O)O; Nicotinoyl = O=C(c1cccnc1)*

Assay [1] has as its target T1, human angiotensin AT2 receptor (human, UniProt P50052 1-363).
T1 sequence (looked up): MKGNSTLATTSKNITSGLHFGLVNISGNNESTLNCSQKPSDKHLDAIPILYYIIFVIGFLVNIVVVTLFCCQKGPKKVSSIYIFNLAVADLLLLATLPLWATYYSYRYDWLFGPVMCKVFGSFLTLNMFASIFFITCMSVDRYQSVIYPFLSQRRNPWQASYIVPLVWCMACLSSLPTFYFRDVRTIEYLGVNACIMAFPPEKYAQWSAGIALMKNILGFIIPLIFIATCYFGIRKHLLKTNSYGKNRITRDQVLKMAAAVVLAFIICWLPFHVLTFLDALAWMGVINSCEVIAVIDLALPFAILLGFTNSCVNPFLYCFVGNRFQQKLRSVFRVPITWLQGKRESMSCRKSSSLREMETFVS

Assay [2] deals with T1, human angiotensin AT2 receptor. The source holds these as a separate data set.
Another assay concerns the target T2, Bradykinin B1.
T2 sequence (P46663 whole entry, species assumed, looked up): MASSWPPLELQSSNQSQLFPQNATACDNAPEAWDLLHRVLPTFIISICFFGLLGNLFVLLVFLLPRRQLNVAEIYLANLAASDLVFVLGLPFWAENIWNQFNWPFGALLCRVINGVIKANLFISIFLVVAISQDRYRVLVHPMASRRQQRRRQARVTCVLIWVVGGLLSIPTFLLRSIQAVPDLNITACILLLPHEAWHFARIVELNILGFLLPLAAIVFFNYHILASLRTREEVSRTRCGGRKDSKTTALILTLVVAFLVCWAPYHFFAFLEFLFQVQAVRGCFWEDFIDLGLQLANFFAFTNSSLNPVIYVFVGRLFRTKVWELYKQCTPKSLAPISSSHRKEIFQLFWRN
In words: receptor panel ligand-binding screen, FPAh at 10 µM.

The next assay concerns the target Cholecystokinin. The description is as above.
The target in another assay is Estrogen ERa. The description is as above.
A further assay deals with Glutamate AMPA. The assay is described as above.
The target in assay [3] is Inositol Triphosphate IP3. The assay is described as above.
The target of the next assay is Potassium Channel [Ka]. The description is as above.
A further assay addresses Serotonin 5-HT 2a. The assay is described as above.
The target of assay [4] is T3, Thyrotropin Releasing Hormone.
T3 sequence (P34981 whole entry, species assumed, looked up): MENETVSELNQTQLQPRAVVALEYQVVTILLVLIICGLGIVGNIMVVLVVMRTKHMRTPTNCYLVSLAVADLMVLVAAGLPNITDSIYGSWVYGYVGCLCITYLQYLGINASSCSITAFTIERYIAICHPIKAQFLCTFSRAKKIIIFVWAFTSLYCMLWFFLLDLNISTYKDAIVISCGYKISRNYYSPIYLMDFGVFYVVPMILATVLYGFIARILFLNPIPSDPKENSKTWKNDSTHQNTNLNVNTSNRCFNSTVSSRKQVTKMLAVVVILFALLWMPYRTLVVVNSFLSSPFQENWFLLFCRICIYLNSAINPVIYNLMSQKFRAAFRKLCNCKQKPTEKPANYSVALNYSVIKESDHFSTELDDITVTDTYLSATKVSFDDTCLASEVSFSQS
The description is as above.

Assay [5] has as its target Vascular endothelial growth factor. The assay is described as above.
The target of assay [6] is T1, human angiotensin AT2 receptor. Put plainly: [125I]CGP-42112A binding to membranes of HeLa cells expressing human AT2 receptor. As to the method: (§1) Compounds were screened at 10 μM. […] Biochem. Biophys. Res. Comm.
Assay [7] has the same target. As to the method:
as §1
This is another data set of the same source.

Assay [8] deals with T4, human angiotensin AT2 receptor (human) (UniProt P50052).
T4 sequence (looked up): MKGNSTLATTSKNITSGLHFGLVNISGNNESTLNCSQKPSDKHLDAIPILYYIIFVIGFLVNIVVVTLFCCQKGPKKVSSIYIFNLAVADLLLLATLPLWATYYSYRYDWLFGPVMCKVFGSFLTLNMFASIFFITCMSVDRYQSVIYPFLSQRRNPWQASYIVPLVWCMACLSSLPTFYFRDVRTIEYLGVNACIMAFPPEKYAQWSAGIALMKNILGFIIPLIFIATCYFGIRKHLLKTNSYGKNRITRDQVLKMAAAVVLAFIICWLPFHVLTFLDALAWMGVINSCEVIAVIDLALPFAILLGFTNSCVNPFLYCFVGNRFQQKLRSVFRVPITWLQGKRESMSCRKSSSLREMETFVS

Chain of Serotonin 5-HT 2a (P28223 whole entry): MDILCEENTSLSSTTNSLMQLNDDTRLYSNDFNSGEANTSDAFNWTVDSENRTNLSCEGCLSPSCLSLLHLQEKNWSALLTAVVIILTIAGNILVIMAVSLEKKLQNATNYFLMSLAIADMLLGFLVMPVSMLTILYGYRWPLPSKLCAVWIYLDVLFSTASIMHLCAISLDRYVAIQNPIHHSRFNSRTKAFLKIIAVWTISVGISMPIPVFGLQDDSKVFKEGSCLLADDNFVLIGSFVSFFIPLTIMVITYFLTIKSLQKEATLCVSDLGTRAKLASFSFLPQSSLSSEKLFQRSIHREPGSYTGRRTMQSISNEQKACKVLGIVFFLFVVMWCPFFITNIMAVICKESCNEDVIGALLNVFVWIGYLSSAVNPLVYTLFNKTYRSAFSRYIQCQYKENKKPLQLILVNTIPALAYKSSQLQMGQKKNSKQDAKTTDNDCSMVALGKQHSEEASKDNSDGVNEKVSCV

Regarding “N-Admantaneacetyl-DArg0-Hyp3, Thi5,8,DPhe7] Bradykinin (peptide)”, in assay [1], the % Inhibition ATII receptor turned out to be 61%. As to “N-Admantanecarbonyl-DArg0-Hyp3, Thi5,8, DPhe7] Bradykinin (peptide)”, the % Inhibition ATII receptor in [1] was 63%. In assay [2], Saralasin (peptide) registered an IC50 of 0.28 nM, a Ki of 0.091 nM and a nH of 0.9. Turning to [Lys0-Hyp3] Bradykinin (peptide), in assay [1], the % Inhibition ATII receptor worked out at 13%. On to Bradykinin (1-3) (peptide), for which the % Inhibition ATII receptor in [1] is -2%. For RPPG[2Thi]S[dF][2Thi]R [[Thi5,8,DPhe7] Bradykinin], the % Inhibition ATII receptor in assay [1] came to 53%. For the molecule RPPGFS [Bradykinin (1-6)], the % Inhibition ATII receptor in [1] is -12%. ADSGEGDFLAEGGGVR [human form of Fibrinopeptide-A]: the % inhibited (ligand-receptor binding) in the assay with Bradykinin B1 was found to be 24%; with Cholecystokinin it was 33%; with Estrogen ERa, 33%; in assay [3], 33%; with Potassium Channel [Ka] it was 25%; in assay [4], 23%. The % stimulated (ligand-receptor binding) with Glutamate AMPA amounted to 30%; with Serotonin 5-HT 2a, 21%; in assay [5] it was 22%. With RPPGFS[dF]FR [[DPhe7] Bradykinin], the % Inhibition ATII receptor in assay [1] stood at 9%. Regarding XRPXGXSXXR (D-Arg at 0; Hyp at 3; Igl at 5; D-Igl at 7; Oic at 8 (bradykinin numbering)) [B9430], the % Inhibition ATII receptor in assay [1] came out at 70%.

B1: CGP-42112A (peptide)
peptide: Nicotinoyl-YKHPI-OH
modifications: not fully specified (residue 2)
notes: Modified peptide ligand of the AT2 receptor and radioligand of the assay; also called CPG42112A
As for B1, the Kd in [6] stood at 0.012 nM. Besides, in assay [7], the IC50 was determined as 0.024 nM; the affinity, expressed as Ki, was 0.0078 nM; the nH amounted to 1.1. With XRPXGXSXXR (D-Arg at 0; Hyp at 3; Thi at 5; D-Tic at 7; Oic at 8 (bradykinin numbering)) [Hoe 140], in assay [1], the % Inhibition ATII receptor was found to be 29%. With RPPGFSP (also called VP060) [Bradykinin (1-7)], the “% Inhibition ATII receptor” value in assay [7] was found to be 55%. For the molecule XRPXGXSXXR (D-Arg at 0; Hyp at 3; Thi at 5; D-Igl at 7; Oic at 8 (bradykinin numbering)) [B9340], in assay [1], the % Inhibition ATII receptor amounted to 35%.

KRPPGFSPL (also called VP041) [Lys-(Des-Arg9, Leu8)-Bradykinin]: in assay [7], the “% Inhibition ATII receptor” value is 98%. In the case of PPGFSPFR [Bradykinin (2-9)], the % Inhibition ATII receptor in assay [1] is -13%. In the case of RPPGYSPFR (also called VP053) [Tyr5] Bradykinin], in assay [7], the “% Inhibition ATII receptor” value was 13%. Regarding MKRPPGFSPFR (also called VP049) [Met-Lys0] Bradykinin], the “% Inhibition ATII receptor” value in assay [7] is 38%. As for RPPGF [Bradykinin (1-5)], in [1], the % Inhibition ATII receptor came out at 1%. For the molecule PPGFSP [Bradykinin (2-7)], the % Inhibition ATII receptor in assay [1] is -6%. For the molecule KRPPGFSPFR (also called VP048) [[Lys0] Bradykinin], the “% Inhibition ATII receptor” value in [7] worked out at 29%. As for YRPPGFSPFR (also called VP051) [[Tyr0] Bradykinin], the “% Inhibition ATII receptor” value in assay [7] was found to be 33%. Consider KRPAGFSPFR (also called VP050) [Lys0-Ala3] Bradykinin], for which the “% Inhibition ATII receptor” value in assay [7] came to 18%. Regarding RPPGFSPYR [[Tyr8] Bradykinin], the % Inhibition ATII receptor in [8] was -1%.

Consider ISRPPGFSPFR (also called VP054) [Ile-Ser0]-Bradykinin], for which the “% Inhibition ATII receptor” value in [7] is 29%.
